Assays:
HLA-A*68:02 = assay: IEDB peptide-MHC binding, purified MHC/competitive/fluorescence; filed as Kd, often an IC50 or EC50 that approximates it; ≥ and ≤ were set here for values at or beyond the usual limits of such assays; details: source organism: Yersinia pestis Nepal516
HLA-B*15:42 = assay: as above
HLA-B*83:01 = assay: as above
HLA-C*04:01 = assay: as above
HLA-B*15:01 [1] = assay: IEDB peptide-MHC binding, purified MHC/direct/fluorescence; filed as Kd, often an IC50 or EC50 that approximates it; ≥ and ≤ were set here for values at or beyond the usual limits of such assays
HLA-B*35:01 = assay: as above
HLA-B*46:01 [2] = assay: as above; details: source organism: Yellow fever virus 17D
HLA-B*51:01 [3] = assay: as above; details: source organism: Yellow fever virus 17D
HLA-C*14:02 = assay: as above; details: source organism: Yellow fever virus
HLA-C*15:02 = assay: as above; details: source organism: Yellow fever virus
HLA-A*01:01 = assay: as above
HLA-A*02:01 [4] = assay: as above
HLA-A*03:01 [5] = assay: as above
HLA-A*11:01 = assay: as above
HLA-A*26:01 [6] = assay: as above
HLA-A*31:01 = assay: as above
HLA-A*69:01 [7] = assay: as above
HLA-B*07:02 = assay: as above
HLA-B*08:01 = assay: as above
HLA-B*27:05 = assay: as above
HLA-B*40:01 = assay: as above
HLA-B*44:02 = assay: as above
HLA-B*58:01 = assay: as above
HLA-A*24:03 [8] = assay: as above; details: source organism: Giardia lamblia ATCC 50803
HLA-A*02:01 [9] = assay: IEDB peptide-MHC binding, purified MHC/competitive/fluorescence; filed as Kd, often an IC50 or EC50 that approximates it; ≥ and ≤ were set here for values at or beyond the usual limits of such assays
HLA-A*02:03 [10] = assay: as above; details: source organism: Encephalitozoon cuniculi GB-M1
HLA-A*02:11 = assay: as above
HLA-A*02:12 = assay: as above; details: source organism: Encephalitozoon cuniculi GB-M1
HLA-A*02:19 = assay: as above
HLA-A*03:01 [11] = assay: as above; details: source organism: Encephalitozoon cuniculi GB-M1
HLA-A*24:03 [12] = assay: as above; details: source organism: Encephalitozoon cuniculi GB-M1
HLA-A*26:01 [13] = assay: as above; details: source organism: Encephalitozoon cuniculi GB-M1
HLA-A*29:02 = assay: as above; details: source organism: Encephalitozoon cuniculi GB-M1
HLA-B*15:01 [14] = assay: as above; details: source organism: Encephalitozoon cuniculi GB-M1
HLA-B*18:01 = assay: as above; details: source organism: Encephalitozoon cuniculi GB-M1
HLA-B*27:03 = assay: as above; details: source organism: Encephalitozoon cuniculi GB-M1
HLA-B*39:01 = assay: as above; details: source organism: Encephalitozoon cuniculi GB-M1
HLA-B*46:01 [15] = assay: as above; details: source organism: Encephalitozoon cuniculi GB-M1
HLA-B*51:01 [16] = assay: as above; details: source organism: Encephalitozoon cuniculi GB-M1
HLA-B*57:01 = assay: as above; details: source organism: Encephalitozoon cuniculi GB-M1
HLA-A*69:01 [17] = assay: as above; details: source organism: Human immunodeficiency virus type 1 (BH5 ISOLATE)
HLA-A*02:02 = assay: IEDB peptide-MHC binding, purified MHC/competitive/radioactivity; filed as Kd, often an IC50 or EC50 that approximates it; ≥ and ≤ were set here for values at or beyond the usual limits of such assays; details: source organism: HIV-1 M:B_ARV2/SF2
HLA-A*02:03 [18] = assay: as above; details: source organism: HIV-1 M:B_ARV2/SF2
HLA-A*02:06 = assay: as above; details: source organism: HIV-1 M:B_ARV2/SF2
HLA-B*45:06 = assay: IEDB peptide-MHC binding, purified MHC/competitive/fluorescence; filed as Kd, often an IC50 or EC50 that approximates it; ≥ and ≤ were set here for values at or beyond the usual limits of such assays; details: source organism: human gammaherpesvirus 4
[19] = source organism: Yersinia pestis Nepal516
[20] = source organism: Salmonella enterica
[21] = source organism: Giardia lamblia ATCC 50803
[22] = source organism: Encephalitozoon cuniculi GB-M1
[23] = source organism: Human immunodeficiency virus type 1 (BH5 ISOLATE)
[24] = source organism: human gammaherpesvirus 4
[25] = source organism: Vibrio cholerae

**Q.** How did the Kd (HLA-A*68:02) turn out when MTHPQSEAA was run?
**A.** The Kd was ≤ 0.0001 µM.

**Q.** What about the Kd (HLA-B*15:42; [19]) of the same sequence?
**A.** The Kd was ≥ 5 µM.

**Q.** And the Kd (HLA-B*83:01; [19])?
**A.** The Kd was ≥ 5 µM.

**Q.** What about the Kd (HLA-C*04:01; [19]) of the same sequence?
**A.** The Kd was ≥ 5 µM.

**Q.** Which Kd (HLA-B*15:01 [1]; source organism: Yellow fever virus 17D) does the source give for RVLDCRTAF here?
**A.** Its Kd is 0.108 µM.

**Q.** What about the Kd (HLA-B*35:01; source organism: Yellow fever virus) of the same sequence?
**A.** Its Kd is 0.324 µM.

**Q.** What about the Kd (HLA-B*46:01 [2]) of the same sequence?
**A.** The Kd was ≥ 20 µM.

**Q.** And the Kd (HLA-B*51:01 [3])?
**A.** Its Kd is ≥ 20 µM.

**Q.** What about the Kd (HLA-C*14:02) of the same sequence?
**A.** The Kd was 0.349 µM.

**Q.** And the Kd (HLA-C*15:02)?
**A.** Its Kd is ≥ 20 µM.

**Q.** For AHSKAETEA, which Kd (HLA-A*01:01; [20]) is on record?
**A.** Its Kd is ≥ 20 µM.

**Q.** What about the Kd (HLA-A*02:01 [4]; [20]) of the same sequence?
**A.** The Kd was ≥ 20 µM.

**Q.** What about the Kd (HLA-A*03:01 [5]; [20]) of the same sequence?
**A.** The Kd was ≥ 20 µM.

**Q.** And the Kd (HLA-A*11:01; [20])?
**A.** Its Kd is ≥ 20 µM.

**Q.** And the Kd (HLA-A*26:01 [6]; [20])?
**A.** Its Kd is ≥ 20 µM.

**Q.** And the Kd (HLA-A*31:01; [20])?
**A.** Its Kd is ≥ 20 µM.

**Q.** And the Kd (HLA-A*69:01 [7]; [20])?
**A.** Its Kd is ≥ 20 µM.

**Q.** What about the Kd (HLA-B*07:02; [20]) of the same sequence?
**A.** The Kd was ≥ 20 µM.

**Q.** What about the Kd (HLA-B*08:01; [20]) of the same sequence?
**A.** Its Kd is ≥ 20 µM.

**Q.** And the Kd (HLA-B*15:01 [1]; [20])?
**A.** The Kd was ≥ 20 µM.

**Q.** And the Kd (HLA-B*27:05; [20])?
**A.** The Kd was ≥ 20 µM.

**Q.** And the Kd (HLA-B*35:01; source organism: Salmonella enterica subsp. enterica serovar Typhimurium)?
**A.** Its Kd is ≥ 20 µM.

**Q.** And the Kd (HLA-B*40:01; [20])?
**A.** Its Kd is ≥ 20 µM.

**Q.** What about the Kd (HLA-B*44:02; [20]) of the same sequence?
**A.** The Kd was ≥ 20 µM.

**Q.** And the Kd (HLA-B*58:01; [20])?
**A.** Its Kd is ≥ 20 µM.

**Q.** How did the Kd (HLA-A*01:01; [21]) turn out when QTSTLYDFY was run?
**A.** Its Kd is 0.0397 µM.

**Q.** What about the Kd (HLA-A*02:01 [4]; [21]) of the same sequence?
**A.** The Kd was ≥ 20 µM.

**Q.** And the Kd (HLA-A*03:01 [5]; [21])?
**A.** Its Kd is ≥ 20 µM.

**Q.** What about the Kd (HLA-A*11:01; [21]) of the same sequence?
**A.** Its Kd is ≥ 20 µM.

**Q.** What about the Kd (HLA-A*24:03 [8]) of the same sequence?
**A.** The Kd was ≥ 20 µM.

**Q.** What about the Kd (HLA-A*26:01 [6]; [21]) of the same sequence?
**A.** The Kd was ≥ 20 µM.

**Q.** What about the Kd (HLA-A*31:01; [21]) of the same sequence?
**A.** Its Kd is ≥ 20 µM.

**Q.** And the Kd (HLA-A*69:01 [7]; [21])?
**A.** The Kd was ≥ 20 µM.

**Q.** What about the Kd (HLA-B*07:02; [21]) of the same sequence?
**A.** Its Kd is ≥ 20 µM.

**Q.** And the Kd (HLA-B*08:01; [21])?
**A.** Its Kd is ≥ 20 µM.

**Q.** And the Kd (HLA-B*15:01 [1]; [21])?
**A.** Its Kd is 1.71 µM.

**Q.** What about the Kd (HLA-B*27:05; [21]) of the same sequence?
**A.** Its Kd is ≥ 20 µM.

**Q.** What about the Kd (HLA-B*35:01; [21]) of the same sequence?
**A.** Its Kd is 0.0286 µM.

**Q.** And the Kd (HLA-B*40:01; [21])?
**A.** Its Kd is ≥ 20 µM.

**Q.** What about the Kd (HLA-B*44:02; [21]) of the same sequence?
**A.** The Kd was ≥ 20 µM.

**Q.** What about the Kd (HLA-B*58:01; [21]) of the same sequence?
**A.** The Kd was 3.79 µM.

**Q.** Which results are given for NLFEIEWEE?
**A.** Kd (HLA-A*02:01 [9]; [22]): ≥ 20 µM; Kd (HLA-A*02:03 [10]): ≥ 20 µM; Kd (HLA-A*02:11; [22]): ≥ 20 µM; Kd (HLA-A*02:12): 0.298 µM; Kd (HLA-A*02:19; [22]): ≥ 20 µM; Kd (HLA-A*03:01 [11]): ≥ 20 µM; Kd (HLA-A*24:03 [12]): ≥ 20 µM; Kd (HLA-A*26:01 [13]): ≥ 20 µM; Kd (HLA-A*29:02): ≥ 20 µM; Kd (HLA-B*15:01 [14]): ≥ 20 µM; Kd (HLA-B*18:01): ≥ 20 µM; Kd (HLA-B*27:03): ≥ 20 µM; Kd (HLA-B*39:01): ≥ 20 µM; Kd (HLA-B*46:01 [15]): ≥ 20 µM; Kd (HLA-B*51:01 [16]): ≥ 20 µM; Kd (HLA-B*57:01): ≥ 20 µM

**Q.** Which results are given for VLAEAMSQV?
**A.** Kd (HLA-A*02:01 [9]; [23]): 0.0275 µM; Kd (HLA-A*02:11; [23]): ≤ 0.0001 µM; Kd (HLA-A*02:19; [23]): 0.00125 µM; Kd (HLA-A*69:01 [17]): 0.0827 µM; Kd (HLA-A*02:02): 0.00243 µM; Kd (HLA-A*02:03 [18]): 0.00437 µM; Kd (HLA-A*02:06): 0.0131 µM

**Q.** How did the Kd (HLA-B*15:42; [24]) turn out when WEMRAGREI was run?
**A.** Its Kd is ≥ 5 µM.

**Q.** What about the Kd (HLA-B*45:06) of the same sequence?
**A.** The Kd was ≥ 5 µM.

**Q.** What about the Kd (HLA-B*83:01; [24]) of the same sequence?
**A.** The Kd was ≥ 5 µM.

**Q.** What about the Kd (HLA-C*04:01; [24]) of the same sequence?
**A.** The Kd was ≥ 5 µM.

**Q.** Which results are given for SLQECVKMA?
**A.** Kd (HLA-A*02:01 [9]; [21]): 0.0007 µM; Kd (HLA-A*02:11; [21]): 0.0021 µM

**Q.** WAGIWGGKL was tested. Which Kd (HLA-A*01:01; [25]) did it give?
**A.** The Kd was ≥ 20 µM.

**Q.** And the Kd (HLA-A*02:01 [4]; [25])?
**A.** Its Kd is ≥ 20 µM.

**Q.** And the Kd (HLA-A*03:01 [5]; [25])?
**A.** Its Kd is ≥ 20 µM.

**Q.** And the Kd (HLA-A*11:01; [25])?
**A.** The Kd was ≥ 20 µM.

**Q.** What about the Kd (HLA-A*26:01 [6]; [25]) of the same sequence?
**A.** Its Kd is ≥ 20 µM.

**Q.** What about the Kd (HLA-A*31:01; [25]) of the same sequence?
**A.** Its Kd is ≥ 20 µM.

**Q.** What about the Kd (HLA-A*69:01 [7]; [25]) of the same sequence?
**A.** Its Kd is 0.242 µM.

**Q.** And the Kd (HLA-B*07:02; [25])?
**A.** Its Kd is 13 µM.

**Q.** And the Kd (HLA-B*08:01; [25])?
**A.** Its Kd is ≥ 20 µM.

**Q.** What about the Kd (HLA-B*15:01 [1]; [25]) of the same sequence?
**A.** The Kd was ≥ 20 µM.

**Q.** And the Kd (HLA-B*27:05; [25])?
**A.** Its Kd is ≥ 20 µM.

**Q.** What about the Kd (HLA-B*35:01; [25]) of the same sequence?
**A.** Its Kd is 0.342 µM.

**Q.** What about the Kd (HLA-B*40:01; [25]) of the same sequence?
**A.** The Kd was ≥ 20 µM.

**Q.** And the Kd (HLA-B*44:02; [25])?
**A.** The Kd was ≥ 20 µM.

**Q.** And the Kd (HLA-B*58:01; [25])?
**A.** Its Kd is ≥ 20 µM.

Reference: the Immune Epitope Database (IEDB)
